A short description of this series: yeast display, Sf9 membrane polyspecificity reagent, FACS + sequencing; frameworks hold sequencing errors. In a few lines: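 After 36–48 hours of galactose induction, yeast (Saccharomyces cerevisiae BJ5465) displaying a synthetic nanobody library were stained at 4 °C for 1 hour with 10% biotinylated, detergent-solubilized Sf9 membrane reagent. Streptavidin microbeads enriched the stained cells before FACS sorting into low and high (top ~1%) gates on anti-HA and streptavidin fluorescence. Each clone's polyreactivity label reflects its gate of origin.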
“QVQLVESGGGLVQAGGSLRLSCAASGSTFYPYAMGWYRQAPGKERELVAAISSGGSTYYADSVKGRFTISRDNAKNTVYLQMNSLKPEDTAVYYCAADLYYAYYWGQGTQVTVSS”: the “polyreactivity (PSR sort gate)” value is recorded as “low polyreactivity”.

Consider “QVQLVESGGGLVQAGGSLRLSCAASGSTFYPYAMGWYRQATGKERELVAGISWSGGSTYYADSVKGRFTFSRDNAKNTVYLQMNSLNPEDTAVYYCAVDVYWSVIYDYWGQGTQVTVSS”, for which the “polyreactivity (PSR sort gate)” value is “low polyreactivity”.

As to “QVQLVESGGGLVQAGGSLRLSCAASGSTFYPYFMGWYREAPGKERELVAAITYRGSTYYADSVKGRFTISRDNAKYTVYLQMNSLKPEDTAVYYCAAAVYAIDYTYYYWGQGTQVTVSS”, the “polyreactivity (PSR sort gate)” value is recorded as “high polyreactivity”.

On to “QVQLVESGGGLVQAGGSLRLSCAASGSTFYPYGMGWYRPAPGKERELVAAITDSGGSTYYADSVKGRFTISRDNAKNTVYLQMNSLKPEDTAVYYCAKTYWYPWRASLWHEYDYWGQGTQVTVSS”, for which the “polyreactivity (PSR sort gate)” value was “low polyreactivity”.

Take “QVQLVESGGGLVQAGGSLRLSCAASGSTFYQYAAMGWYRQAPGKERELVAAISGRGTRTYYADSVKGRFTISRDNAKNTVYLQMNSLKPEDTAVYYCAAEVNIRQYGFDYWGQGTQVTVSS”: the “polyreactivity (PSR sort gate)” value is listed as “high polyreactivity”.

For “QVQLVESGGGLVQAGGSLRLSCAASGSTFYQYAMGWYRQAPGKERELVAAISRISGSTSYADSVKGRFTISRDNAKNTVYLQLYSLKPEDTAVYYCAKGTAPIPYRGRVGTSKSDYWGQGTQVTVSS”, the “polyreactivity (PSR sort gate)” value is reported as “low polyreactivity”.

Turning to “QVQLVESGGGLVQAGGSLRLSCAASGSTFYQYAMGWYRQAPGKERELVAAISWDSGSTYYADSVKGRFTISRDNAKNTVYLQMNSLKPEDTAVYYCAASWYGYYDCYAVEYDYLGQGTQVTVSS”, the “polyreactivity (PSR sort gate)” value was “low polyreactivity”.

Take “QVQLVESGGGLVQAGGSLRLSCAASGSTFYQYAMGWYRQSPGKERELVAAISGISGSTSYADSVKGRFTISRDNAKNTVYLQMNSLKPEDTAVYYCAKGTAPIPYRGRVGTSKSDYWGQGTQVTVSS”: the “polyreactivity (PSR sort gate)” value was “low polyreactivity”.

For the sequence “QVQLVESGGGLVQAGGSLRLSCAASGSTFYQYVMGWYRQAPGKERELVAAISGSGGSTYYADSVKGRFTISRDNAKNTVYLQMNSLKPEDTAVYYCAADNYFDWYWLFFEYDYWGQGTQVTVSS”, the “polyreactivity (PSR sort gate)” value is “high polyreactivity”.

Regarding “QVQLVESGGGLVQAGGSLRLSCAASGSTFYRNAMGWYIQAPGKVRELVAAISQSGGRTYYADSVKGRFTISRDNAKNTVYLQMNSLKPEDTAVYYCATAFRKDRGFYPSRDYWGQGTQVTVSS”, the “polyreactivity (PSR sort gate)” value is “high polyreactivity”.

For the sequence “QVQLVESGGGLVQAGGSLRLSCAASGSTFYRNVMGWYRQAPGKERELVAAISSGGSTYYADSVIGRFTISRDNAKNTVYLQLNSLKPEDTAVYYCARRLTREYDYWGQGTQVTVSS”, the “polyreactivity (PSR sort gate)” value was “low polyreactivity”.

As for “QVQLVESGGGLVQAGGSLRLSCAASGSTFYRYAIRWYRQAPGKERELVAAISKRGGSTYYADSVKGRFTISRDNAKNTVYLQMNSLKPEDTAVYYCAADPFHYGGGDDYWGQGTQVTVSS”, the “polyreactivity (PSR sort gate)” value is “high polyreactivity”.

On to “QVQLVESGGGLVQAGGSLRLSCAASGSTFYRYAKVSYRQAPGKARELVAAITRTGGSTYADSVKGRFTISRDNAKYTDYLQMKSLKPEDTAVYYCAVQRYYVSSISPFYYWGQGTQVTVSS”, for which the “polyreactivity (PSR sort gate)” value is given as “low polyreactivity”.

For the sequence “QVQLVESGGGLVQAGGSLRLSCAASGSTFYRYAMGWYRQAPGKEREFVAAISRSGGSTYYADSVKGRFTISRDNAKNTVYLQMNSLNPEDTAVYYCNALNYRYRKYDYWGQGTQVTVSS”, the “polyreactivity (PSR sort gate)” value is listed as “high polyreactivity”.

Take “QVQLVESGGGLVQAGGSLRLSCAASGSTFYRYAMGWYRQAPGKEREFVAAISTRGGSTHYADSVKGRFTISRDTAKNTVYLHMNSLKPEDTAVYYCNARGYYSVPSNTGIRYYRFDYWGQGTQVTVSS”: the “polyreactivity (PSR sort gate)” value is recorded as “high polyreactivity”.

“QVQLVESGGGLVQAGGSLRLSCAASGSTFYRYAMGWYRQAPGKERELVAAIDSSGGSTYYPDSVKGRFTISRDNAKNTVYLQMNSLKPEDTAVYYCATDLPPGGYDSWGQVTQVTVSS”: the “polyreactivity (PSR sort gate)” value was “low polyreactivity”.

On to “QVQLVESGGGLVQAGGSLRLSCAASGSTFYRYAMGWYRQAPGKERELVAAISKRGGSTYYADSVKGRFTISRDNAKNTVYLQMNSLKPEDTAVYYCAADPFHYGGGDDYWGQGTQVTVSS”, for which the “polyreactivity (PSR sort gate)” value is “high polyreactivity”.

With “QVQLVESGGGLVQAGGSLRLSCAASGSTFYRYAMGWYRQAPGKERELVAAISSGGRTYYADSVKGRFTISRDNAKNTVYLQMNSLKPEDTAVYYCAADDSEGFDYWGQGTQVTVSS”, the “polyreactivity (PSR sort gate)” value is “high polyreactivity”.

Turning to “QVQLVESGGGLVQAGGSLRLSCAASGSTFYRYAMGWYRQAPGKERELVAAITRSDGITYYADSVKGRFTISRDNAKNTVYLQMNSLKPEDTAVYYCAKGYVGSFYDDFYYWGQGTQVTVSS”, the “polyreactivity (PSR sort gate)” value is given as “low polyreactivity”.

Regarding “QVQLVESGGGLVQAGGSLRLSCAASGSTFYRYAMGWYRQAPGKERELVARIRLSGTSTYYADSVKGRFTISRDNAKNTVYLQMNSLKPEDTAVYYCAAELYSRNWRSQYDYWGQGTQVTVSS”, the “polyreactivity (PSR sort gate)” value is reported as “high polyreactivity”.

As for “QVQLVESGGGLVQAGGSLRLSCAASGSTFYRYAMGWYRQAPGKERELVATITNSGGSTYYADSVKGRFTISRDNAKNTVYLQMNSLKPEDTAVYYCARVRSRNTGYYYWGQGTQVTVSS”, the “polyreactivity (PSR sort gate)” value is “high polyreactivity”.

In the case of “QVQLVESGGGLVQAGGSLRLSCAASGSTFYRYTMGWYRQAPGKERELVAAISRGGDSTYYADSVKGRFTISRDNAKNTVYLQMNSLKPEDTAVYYCAANVGARKFGYEYNYWGQGTQVTVSS”, the “polyreactivity (PSR sort gate)” value is “high polyreactivity”.

On to “QVQLVESGGGLVQAGGSLRLSCAASGSTFYRYTMGWYRQAPGKERELVAAISRSGGRTYYADSVKGRFTISRDNAKNTVYLQMNSLIPEDTAVYYCNAEIASSAVQAQEGDYWGQGTQVTVSS”, for which the “polyreactivity (PSR sort gate)” value is “high polyreactivity”.

“QVQLVESGGGLVQAGGSLRLSCAASGSTFYSNAMGWYRQAPGKERELVAAINRGSSTYYADSVKGRFTISRDNAKNTVYLQMNSLKPDDTAVYYCAVDYFWYEMDYWGQGTQVTVSS”: the “polyreactivity (PSR sort gate)” value is “low polyreactivity”.

With “QVQLVESGGGLVQAGGSLRLSCAASGSTFYSNAMGWYRQAPGKERELVDSISWSSGSTYYADSVKGRFTISRDNAKNTVYLQMNSLKPEDTAVYYCATDAGGPYRFGYWGQGTQVTVSS”, the “polyreactivity (PSR sort gate)” value is given as “low polyreactivity”.

“QVQLVESGGGLVQAGGSLRLSCAASGSTFYSNTMGWYRQAPGKERELVAAITRSGGSTYYADSVKGRFTISRDNAKNTVYLQMNSLKPEETAVYYCNTGYKTRALYWPYDYWGQGTLVTVSS”: the “polyreactivity (PSR sort gate)” value is on record as “high polyreactivity”.

With “QVQLVESGGGLVQAGGSLRLSCAASGSTFYSYAMGWYRQAPGKERELVAAISWRGGTTYYADSVKGRFTISRDNAKNTVYLQMNSLKPEDTAVYYCNARFYRWRSYGYDYWGQGTQVTVSS”, the “polyreactivity (PSR sort gate)” value is “high polyreactivity”.

“QVQLVESGGGLVQAGGSLRLSCAASGSTFYSYAMGWYRQAPGKERELVAAITSRGDRTYYADSVKGRFTISRDNAKNTVYLQMNSLKPEDTAVYYCAAEQSWQGYAYYYWGQGTQVTVSS”: the “polyreactivity (PSR sort gate)” value is “high polyreactivity”.

With “QVQLVESGGGLVQAGGSLRLSCAASGSTFYTNAMGWYRPAPGKEREFVAAISWSGSSTYADSVKGRFTISRDNAKNTVYLQMNSLKPEDTAVYYCAADWFKLRTDYYWGQGTQVTVSS”, the “polyreactivity (PSR sort gate)” value is “low polyreactivity”.

Turning to “QVQLVESGGGLVQAGGSLRLSCAASGSTFYTNAMGWYRQAPGKERELVAAINRSGGRSYYADSVKGRFTISRDNAKNTVYLQMNSLKQEDTAVYYCAARYPLRISTDTARDYYWGQGTQVTVSS”, the “polyreactivity (PSR sort gate)” value is reported as “low polyreactivity”.

On to “QVQLVESGGGLVQAGGSLRLSCAASGSTFYTNDMGWYRQAPGKERELVAAITSSGNTNYADSVKGRFTISRDNAKNTVFLQMNCLKPEDTAVYYYYYYQYDYWGQGTQVTVSS”, for which the “polyreactivity (PSR sort gate)” value was “low polyreactivity”.

Take “QVQLVESGGGLVQAGGSLRLSCAASGSTFYTYAMGWYRQAPGKEMELVADITRGGSTYYADSVKGRFTISRDNAKNTVYLQMNSLKPEDTAVYYCAADYTWLSFFEFDYWGQGTQVTVSS”: the “polyreactivity (PSR sort gate)” value is reported as “high polyreactivity”.

Consider “QVQLVESGGGLVQAGGSLRLSCAASGSTFYTYAMGWYRQAPGKERELVAAISYRGGSTYYADSVKGRFTISRDNAKNTVYLQMNSLKPEDTSVYYCKVDGVVVGTKRGGYDYWGQGTQVTVSS”, for which the “polyreactivity (PSR sort gate)” value is reported as “low polyreactivity”.

For the sequence “QVQLVESGGGLVQAGGSLRLSCAASGSTFYTYAMGWYRQAPGKERELVAAITFSGDSKYYADSVKGRFTISRDNAKNTVYLQMNSLKPEDTAVYYCAALQKRYYRSWVGYDYWGQGTQVTVSS”, the “polyreactivity (PSR sort gate)” value was “high polyreactivity”.

For the sequence “QVQLVESGGGLVQAGGSLRLSCAASGSTFYTYAMGWYRQAPGKERELVARIRWSVGSTYYADSVKGRFTISRDNAKNTVYLQMNSLKPEDTAVYYCAADYYKRYKYLYDYWGQGTQVTVSS”, the “polyreactivity (PSR sort gate)” value is on record as “high polyreactivity”.

On to “QVQLVESGGGLVQAGGSLRLSCAASGSTFYTYDMGWYRQAPGKERELVAAISRRDGITYYADSVKGRFTISRDYATNTVYLQMNSLNPEDSAVYYCAAEDAYRYYDFDYWGQGTQVTVSS”, for which the “polyreactivity (PSR sort gate)” value is “low polyreactivity”.

Consider “QVQLVESGGGLVQAGGSLRLSCAASGSTFYTYPMGWYRQAPGKERELVAAISYRGGSTYYADSVKGRFTISRDTAKNTVYLQMNSMKPEDSAVYYCNVVGVVVGTKRGGYDYWGQGTHVTVSS”, for which the “polyreactivity (PSR sort gate)” value was “low polyreactivity”.

In the case of “QVQLVESGGGLVQAGGSLRLSCAASGSTFYVNAMGWYRQAPGKERELVAAITSGGSTKYADSVKGRYTISCDNAKNTVYLQMNSLKPEDTAVDDCAAPRGRALSKVRYDDEYWGQGTQVTVSS”, the “polyreactivity (PSR sort gate)” value is reported as “high polyreactivity”.

On to “QVQLVESGGGLVQAGGSLRLSCAASGSTFYVNAMGWYRQTPGKEREFVAAITWNSGSTYYADSVKGRFTISRDNEKNTVYLQMNSLKPEDTAVYYCAAVLSVRVYGYDYWGQGTQVTVSS”, for which the “polyreactivity (PSR sort gate)” value was “low polyreactivity”.

As to “QVQLVESGGGLVQAGGSLRLSCAASGSTFYVNAMGWYSQAPGKEREFVAAITWNSGSTYYADSVKGRFTISRDNAKNTVYLQMNSLKPEDTAVYYCAAVLSVRVYGYDYWGQGTQVTVSS”, the “polyreactivity (PSR sort gate)” value was “low polyreactivity”.

Consider “QVQLVESGGGLVQAGGSLRLSCAASGSTFYVNVMGWYRQAPGKERELVAGITIRDGSTYYADSVKGRFTISRDNAKNTVYLQMNSLKPEDTAVYYCARAGDGEYKRDYWGQGTQVTVSS”, for which the “polyreactivity (PSR sort gate)” value was “low polyreactivity”.

Values taken from the nanobody polyreactivity screen of Harvey et al. (2022).
